Data: PMC8707168, “PL1 Peptide Engages Acidic Surfaces on Tumor-Associated Fibronectin and Tenascin Isoforms to Trigger Cellular Uptake” (Pharmaceutics, 2021)
Where a chain is given by its changes, count along the chain named. Numbers in names are those of the source. Entries after “also recorded” stand apart in the source; their conditions may differ. FAM = 5(6)-carboxyfluorescein; Ahx = NCCCCCC(=O)O

What was measured:
U87-MG cells = assay: Effect of endocytosis inhibitors on PL1-AgNP uptake (flow cytometry); type: cell-based; conditions: pre-incubation with 50 μM Nystatin, 50 μM EIPA, 4 μM Cytochalasin D or 10 μM Chlorpromazine, PL1-AgNPs 37 °C 1 h, etching, three independent experiments
Experimental: For characterization of the AgNP uptake pathway in glioma cells, the U87-MG cells were cultured until 80–90% confluency and pre-incubated with the following endocytosis inhibitors: (1) 50 μM Nystatin to block caveolae/lipid-mediated endocytosis, (2) 50 μM 5-(N-ethyl-N-isopropyl)-Amiloride (EIPA) to block […], (3) 4 μM Cytochalasin D to block actin polymerization and […], and (4) 10 μM Chlorpromazine to block clathrin-mediated endocytosis. The PL1-AgNPs or control biotin-AgNPs were then added, and the cells were incubated at 37 °C for 1 h and subsequently washed to remove free particles. Some samples were also treated with an etching solution to remove accessible surface-bound AgNPs. The fluorescence of the labeled AgNPs was detected and analyzed using the BD Accuri 6 flow cytometer in the 555 nm channel.

FN-EDB WT and mutants = molecular target: T1, FN-EDB WT and mutants (Homo sapiens, UniProt P02751, D1277N/D1314N/D1317N); assay: Binding of PL1 nanoworms to recombinant FN-EDB proteins; conditions: FAM-labeled NWs, 80 µg/reaction, protein on Ni-NTA beads, fluorescence 485/535 nm, baseline corrected with control protein P32; three independent experiments
T1 construct: Fibronectin Extra Domain B (FN-EDB); made in house; host or cells: E. coli BL21 Rosetta 2 (DE3) pLysS
Experimental: (§1) Wild type (WT) TNC-C and FN-EDB were prepared as described previously. The DNA inserts encoding for hexahistidine-tagged mutant TNC-C variants (TNC-C E48Q, TNC-C D39N D45N, TNC-C D13N E70Q E88Q) and mutant FN-EDBs variants (FnEDB D68N D70N, FnEDB D52N D49N D12N, FnEDB E42Q D68N E64Q) were synthesized and cloned into pET28a+ expression vectors (GenScript Biotech BV, Netherlands). The resulting plasmids were transformed into the E. coli BL21 Rosetta 2 (DE3) pLysS strain (Novagen, #70956). The protein expression was induced with 0.5 mM IPTG and followed by culturing at 20 °C for 16 h. The bacterial cells were lysed by sonication (Bandelin Sonopuls HD 2070, Merck, Germany) in ice-cold IMAC buffer (25 mM Tris-HCL, 400 mM NaCl, 25 mM imidazole pH 8, protease inhibitors cocktail, DNase I, 1 mM MgCl2). […] The protein concentration was measured by bicinchoninic acid (BCA) assay (Thermo Scientific #23227). The protein purity and size were analyzed using 15% SDS-PAGE.
(§2) The recombinant hexahistidine-tagged TNC-C and EDB WT and mutant proteins (at 60 µg of protein/40 µL beads in PBS) were immobilized to Ni-NTA Magnetic Agarose Beads (QIAGEN, Hilden, Germany) at RT for 1 h. […] The fluorescence of eluted samples was quantified using a Victor X5 Multilabel Plate Reader (PerkinElmer, MA, USA) at an excitation wavelength of 485 nm and an emission wavelength of 535 nm.

TNC-C WT and mutants = molecular target: T2, TNC-C WT and mutants (Homo sapiens, UniProt P24821, D1565N/D1571N); assay: Binding of PL1 nanoworms to recombinant TNC-C proteins; conditions: FAM-labeled NWs, 80 µg/reaction, protein on Ni-NTA beads, fluorescence 485/535 nm, baseline corrected with control protein P32; three independent experiments
T2 construct: Tenascin C C-isoform (TNC-C); made in house; host or cells: E. coli BL21 Rosetta 2 (DE3) pLysS
T2 sequence (P24821 1527-1617 D1565N/D1571N): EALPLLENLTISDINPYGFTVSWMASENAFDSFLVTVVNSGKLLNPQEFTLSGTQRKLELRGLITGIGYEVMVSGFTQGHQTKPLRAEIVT
Experimental: as §1, §2

[1] = molecular target: Fibronectin Extra Domain B mutant D52N D49N D12N, hexahistidine-tagged (human); assay: phage binding assay (titre of eluted phage); His-tagged proteins (30 µg/10 µL beads) on Ni-NTA magnetic agarose beads; T7 phage 5 x 10^8 pfu in 100 µL PBS, 1% BSA, 0.1% NP40, RT, 1 h; 6 washes; eluted with 500 mM imidazole; PFU counted; expressed as percent of WT protein
[2] = molecular target: Fibronectin Extra Domain B mutant D68N D70N, hexahistidine-tagged (human); assay: as above
[3] = molecular target: Fibronectin Extra Domain B mutant E42Q D68N E64Q, hexahistidine-tagged (human); assay: as above
[4] = molecular target: Fibronectin Extra Domain B mutant D52N D49N D12N, hexahistidine-tagged (human); assay: binding of fluorescent peptide nanoworms to protein-coated beads; His-tagged proteins (60 µg/40 µL beads) on Ni-NTA magnetic agarose beads; FAM-labelled PL1-NW 80 µg/reaction in PBS, 1% BSA, 0.1% NP40; 6 washes; eluted with 500 mM imidazole; fluorescence 485/535 nm; percent of WT after baseline correction with control protein P32
[5] = molecular target: Fibronectin Extra Domain B, wild type, hexahistidine-tagged (human) (UniProt P02751); assay: fluorescence polarisation; fluorescence anisotropy saturation binding in solution; fixed FAM-PL1, 0-112 µM FN-EDB or 0-275 µM TNC-C; PBS with 0.1% Pluronic F-127; 24 h at 25 °C; non-specific binding with 500 µM Biotin-Ahx-PL1; global fit, single site with ligand depletion
[6] = molecular target: Tenascin C C-isoform, wild type, hexahistidine-tagged; assay: as above
[7] = molecular target: T3, PL1-functionalized iron oxide nanoworms (FAM-labelled PL1 peptide on NWs); assay: fluorescence readout of FAM-labeled PL1-NW binding to protein-coated NiNTA beads; conditions: chain shown with the change; baseline correction with control protein P32; parent: est. 100; read off a plot
T3 chain: PPRRGLIKLKTS

[8] = molecular target: T4, PL1 peptide displayed on T7 phage; assay: phage binding to immobilized recombinant protein (Ni-NTA magnetic beads); conditions: chain shown with the change;; parent: est. 100; read off a plot
T4 chain: PPRRGLIKLKTS

T1 sequence (P02751 1271-1359 D1277N/D1314N/D1317N): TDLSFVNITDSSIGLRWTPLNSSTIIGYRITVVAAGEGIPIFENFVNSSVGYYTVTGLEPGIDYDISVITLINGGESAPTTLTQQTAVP

`C=C1[C@@H](C)[C@H]2[C@H](Cc3ccccc3)NC(=O)[C@]23[C@H](OC(C)=O)/C=C/[C@@](C)(O)C(=O)[C@@H](C)C/C=C/[C@H]3[C@@H]1O` [Cytochalasin D] was tested, and the “Effect of inhibitor on the uptake of PL1-AgNPs in U87-MG cells” value (from here on “Effect of inhibitor”) (U87-MG cells) was “statistically significant inhibitory effect”.

For “PL1-NW: iron oxide nanoworms coated with PL1 peptide labeled with FAM fluorophore ({FAM-Ahx}-PPRRGLIKLKTS-OH; also: peptide coated on iron oxide nanoworms)”, the “Reduction of PL1-NW binding to FN-EDB D52N D49N D12N mutant versus WT FN-EDB” value (FN-EDB WT and mutants) was ~ 76% and the “Reduction of PL1-NW binding to TNC-C D39N D45N mutant versus WT TNC-C” value (TNC-C WT and mutants) was ~ 100%.

`CN(C)CCCN1c2ccccc2Sc2ccc(Cl)cc21` [Chlorpromazine] was tested, and the “Effect of inhibitor” value (U87-MG cells) was “statistically significant inhibitory effect”.

With `CCN(c1nc(N)c(C(=O)N=C(N)N)nc1Cl)C(C)C` [EIPA, 5-(N-ethyl-N-isopropyl)-Amiloride] the “Effect of inhibitor” value (U87-MG cells) was “statistically significant inhibitory effect; also recorded: strongest”.

With `C[C@@H]1[C@H](O)[C@@H](C)/C=C/C=C/CC/C=C/C=C/C=C/C=C/C(O[C@H]2O[C@H](C)[C@@H](O)[C@H](N)[C@@H]2O)CC2O[C@](O)(CC(O)C(O)CCC(O)CC(O)CC(O)CC(=O)O[C@H]1C)CC(O)C2C(=O)O` (stereo partly shown) [Nystatin] the “Effect of inhibitor” value (U87-MG cells) was “statistically significant inhibitory effect”.

B1: PL1 peptide displayed on T7 phage (peptide)
peptide: PPRRGLIKLKTS
B1 showed a percent decrease of binding against WT FN-EDB [1] of 87%, a percent increase of binding against WT FN-EDB [2] of 142% and a percent increase of binding against WT FN-EDB [3] of 161%.

B2: PL1-functionalized iron oxide nanoworms (FAM-labelled PL1 peptide on NWs) (peptide)
peptide: {FAM-Ahx}-PPRRGLIKLKTS-OH
modifications: also: peptide coated on iron oxide nanoworms
With B2 the percent reduction of binding against WT FN-EDB [4] was 76%.

B3: FAM-PL1 peptide (free peptide) (peptide)
peptide: {5(6)‑carboxyfluorescein-Ahx}-PPRRGLIKLKTS-OH
With B3 the Kd [5] was 1110 nM and the Kd [6] was 1140 nM.

B4: Tenascin C C-isoform, wild type, hexahistidine-tagged D13N; E70Q; E88Q (protein)
chain: T2 sequence (P24821 1527-1617 D1565N/D1571N) with D13N, N39D, N45D, E70Q, E88Q
For B4, the percent of parent (% Change over wt TNC-C) [7] was 70 and the percent of parent (% Change over wt TNC-C) [8] was 33.

B5: Tenascin C C-isoform, wild type, hexahistidine-tagged D39N; D45N (protein)
chain: T2 sequence (P24821 1527-1617 D1565N/D1571N)
B5 showed a percent of parent (% Change over wt TNC-C) [7] of 0.

B6: Tenascin C C-isoform, wild type, hexahistidine-tagged E48Q (protein)
chain: T2 sequence (P24821 1527-1617 D1565N/D1571N) with N39D, N45D, E48Q
B6 showed a percent of parent (% Change over wt TNC-C) [7] of 64 and a percent of parent (% Change over wt TNC-C) [8] of 38.

B7: Fibronectin Extra Domain B, wild type, hexahistidine-tagged, P02751 E42Q; D68N; E64Q (protein)
chain: EVPQLTDLSFVDITDSSIGLRWTPLNSSTIIGYRITVVAAGQGIPIFEDFVDSSVGYYTVTGLQPGINYDISVITLINGGESAPTTLTQQT
B7 gave a percent of parent (% Change over wt FnEDB) [7] of 57.

B8: Fibronectin Extra Domain B, wild type, hexahistidine-tagged, P02751 D68N; D70N (protein)
chain: B7 chain with Q42E, Q64E, D70N
B8 was tested, and the percent of parent (% Change over wt FnEDB) [7] was 29.
